# From the nanobody polyreactivity screen of Harvey et al. (2022)
# Test: yeast display, Sf9 membrane polyspecificity reagent, FACS + sequencing; frameworks hold sequencing errors
# Procedure, shortened: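 A nanobody's polyreactivity label depends on the gate it was sorted from. Yeast display cells were stained with 10% biotinylated, detergent-solubilized Sf9 membrane reagent for 1 hour at 4 °C, enriched on streptavidin microbeads and sorted by FACS. The low and high (top ~1%) gates were set on anti-HA fluorescence for expression and streptavidin fluorescence for reagent binding.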
row,Sequence,polyreactivity (PSR sort gate)
1,QVQLVESGGGLVQAGGSLRLSCAASGIIFEYYAMGWYRQAPGKERELVAAISKRGGSTYYADSVKGRFTISRDNAKNTVYLQMNSLKPEDTAVYYCNARRRYYSGPVYLHYRVNYWGQGTQVTVSS,high polyreactivity
2,QVQLVESGGGLVQAGGILRLSCAASGRIFYNYAMGWYRQAPGKERELGAAISGSGGSTYYADSVKGRFTISRDNAKNTVYLQMNSLKPEDTAVYYCSTSGPQYDSRNFDYWGQGTQVTVSS,low polyreactivity
3,QVQLVESGGGLVQAGGSLRLSCAASGSTFDINAMGWYRQAPGKERELFASITFSGGSTYYADSVKGRITISRDYEKNNVYLQMNSLKPEDTAVYYCAADSSGEYPGGYWGQGTQVTVSS,low polyreactivity
4,QVQLVESGGGLVQAGGSLRLTCAASGSIFGNAMGWYREAPGKEREIVAAISSSGSSTYYADSVKGRFTMSRDTAKNTVYLQMNSLKPADTAVYYCNKGSRRYHGYDYWGQGTQVTVSS,high polyreactivity
5,QVQLVESGGGLVQAGGSLRLSCAASGFILYSYAMGWSRQAPGKEREFVSVISRGGGRTYYADSVKGRFTISRDNAKNTVYLQMNSLKPEDTAVYYCAAGSRSPHWYTRELDYWGQGTQVTVSS,low polyreactivity
6,QVQLVESGGGLVQAGGSLRLSCAASGRIFVYNAMGWYRQAPGKEREFVATITSSGGRTYYADSVKGRFTISRDNAKNTVYLQMNSLKPEDTAVYYCAARPQNNGRNPVYRYNYWGQGTQVTVSS,high polyreactivity
7,QVQLVESGGGLVQAGGSLRLSCAPSGSIFPYYAMGWYRQAPGKERELVAAISGSDGTTYYADSVKGRFTISRDNAKNTVYLQMNSLKPEDTAVYYCAVELPELYYYFAYEYWGQGTQVTVSS,high polyreactivity
8,QVQLVESGGGLVQAGGSLRLSCAASGISFSYYAMGLCRQAPGKERELVAAISISGGRTYYADSVKGRFTISRDNAKNTVYLQMNSLKPEDTAVYYCASCVGSRIKQVGNDYWGQVTQVTVSS,high polyreactivity
9,QVQLVESGGGLVQAGGSLRLSCAASGGIFPAYAMGWYRQSPGKERELVASISANGGRTYYADSVKGRFTISRDNAKNSVYLQLNSLKPEDTAVYYCNASYRSGSWRFYYWGQGTQVTVSS,high polyreactivity
10,QVQLVESGGGLVQAGGSLRLSCAASGSIFKQNAMGWYRQAPGKERELVADITSSGGSTYYADSVKGRFTISRDNAKNTVYLQMNSLKPEDTAVYYCAADGNGVDYDYWGQGTQVTVSS,low polyreactivity
11,QVQLVESGGGLVQAGGSLRLSCAASGSIFPYYAMGWYRQAPGKERELVAAISDSGDSTYYADSVKGRFTISRDNAKNTVYLQMNSLKPEDTAVYYCAADQTSSYYDPWGDYWGQGTQVTVSS,low polyreactivity
12,QVQLVESGGGLVQAGGSLRLSCAASGSTGYYAMGWYRQAPGKERELVAAISYRGASTYYADSVKGRFTISRDNAKNTVYLQMNSLKPEDTAVYYCAALRQERVKYGYWGQGTQVTVSS,high polyreactivity
13,QVQLVESGGGLVQAGGSLRLSGDASGYIFVRYAMGWYRQAPGQARELVAAINSSGGRTYYADSVKGRFTISRDNAKNTVYLQMNSLKPEDTAVYYCAAYAYYRSGYRALEGYWGQGTQVTVSS,high polyreactivity
14,QVQLVESGGGLVQAGGSLRLICAASGGTFYINTMGWYRQAPGKERELVATITIVVSTKYADSVKGRFTISRDNAKNTVYLQMNSLKPEDTAVYYCAKDDVYRDSYLVFDGEMDYWGQGTQVTVSS,low polyreactivity
15,QVQLVESRGALVQAGGSLRLSCAASGPIFDSYAMGWYRQATGKERELVATISRDSASTYYADSVKGRLTISRDNAKNTVYLQMNSLNPADTAVYYCSAGGSSSWAYNYWGHGTQVTVSS,low polyreactivity
16,QVQLVESGGGLVQAGGSLRLSCAASGSTFWPYAMGWYRQAPGKERELVAAISSSGGSTYYADSVKGRFTISRDNAKNTVYLQMNSLKPEDTAVYYCNKDYHRPYGGGSKGDYWGQGTLVTVSS,low polyreactivity
17,QVQLVESGGGLVQAGGSLRLSCAASGRTFWSNGMGWYRQAPGKERELVASISTSGGRTYYADSVKGRFTISRDNAKNTVYLQMNSLKPEDSAVYYCAARTVYRGRAYDYWGQGTQVTVSS,high polyreactivity
18,QVQLVESGGGLVQAGGSLRLICAASGRIFYRYAMGWYRQAPGKERELVAAITWRGGSTYYADSVKGRFTISRDNAKNTVYLQMNSLKPEDTAVYYCAAAAYGVPWRSYLGVFKSHMDYWGQGTQVTVSS,high polyreactivity
19,QVQLVESGGGLVQAGGSLRLSCAASGSNFRVYAMGWYRQAPGKESELVAAIDSGTSTTYADSVKGRFTISRDNAKNTVYLQMNSLKPEDTAVYYCAADGWLWSFTGDGWWFDYWGQGTQVTVSS,low polyreactivity
20,QVQLVESGGGLVQEGGSLRLSCAASGYIFYYYAMGRYIQAPGKERELVAAISTSDTRTFYADSVKGRFTISRDNAKNTVYLQMNSRKPEDTAVYFCAASLYKGGPNYGYEYWGQGTQVTVSS,low polyreactivity
21,QVQLVESGGGLVQAGGSLRLSCAASGLTFFTYVMGWYRQAPGKERELVASISERGGSTFYADSVKGRFTISRDNAKNTVYLQMNSLKPEDTAVYYCATVSQSFKYRYRWRAAASDYWGQGTQVTVSS,high polyreactivity
22,QVQLVESGGGLVQAGGSLRLSCAASGSTLRPYAMGWYRQAPGKERELVAAISKSGASTYYADSVKGRFTISRDNAQNTVYLQMNSLKPEDTAVYYCNAGRGTGETLYGYDYWGQGTQVTVSS,high polyreactivity

row,Sequence,polyreactivity (PSR sort gate)
1,QVQLVESGGGLVQAGGSLRLSSAASGSIFKINAMGWYRQAPGKETELVATITWSTGTTYYADSVKGRFTISRDNAKNTVYLQMNSLKPEDTAVYYCATDGDSTKLDYWGQVTQVTVSS,low polyreactivity
2,QVQLVESGGGLVQARGSLRLICAASGSTFGVHAMGWSRQAPGKERELVAAITWRGGSTYYADSLKGRFTISRDTAKNTVYLQMNSLKPEDTAVYYCAADPRYYSYEYWGEGTQVTVSS,high polyreactivity
3,QVQLVESGGGLVQAGGSLRLSCAASGRTFNSNAMGWYRQAPGKERELVAAITRSGGSTYYADSVKGRFTISRDNAKNTVYLQMNSLKPEDTAVYYCNKTRWTQRTSFDYWGQGTQVTVSS,low polyreactivity
4,QVQLVESGGGLVQAGGSLRLSCAASGSILFVYAMGWYRQAPGKERELVAGINSSGTSTYADSVKGRFTISRDNAKNTVYLQMNSLKPEDTAVYYCAARWFYYRWAYDYWGQGTQVTVSS,low polyreactivity
5,QVQLVESGGGIVQAGGSLRLSCAASGRIFRLNAMGWYRQAPGKERELVAAISSRAGSTYYADSVKGRFTISRDNAKNTVYLQMNSLKPEDTAVYYCAARTYSSRLGRDSDYWGQGTQVTVSS,high polyreactivity
6,QVQLVESGGGLVQAGGSLRLSCAASGSIFDVNAMGWYRQAPGKQRELVAAISDSGGSTYYADSVKGRFTISRDNAKNTVYLQMNSLKPEDTAVYYCNADWSWYNYYDFDYWGQGTQVTVSS,low polyreactivity
7,QVQLVESGGGLDQAGGSLRLSCAASGITFPYYAMGRYIQAPGKERELVADITSGGSTNYADSVKGRFTISRDNAKNTGYLQMNRLKPEDTAVYYCAADWYVIYDYWGQGTQVSVSS,low polyreactivity
8,QVQLVESGGGLFQAGGSLRLSCAASGSIFRVYGMGWYRQAPGKERDLVAAITWSGGSTYYADSVKGRFTISRDNAKNTLYVQINSLKPDATAVYYCAARARPRYYRPPYDYWGQGTQVTVSS,high polyreactivity
9,QVQLVESGGGLVQAGGSLRLSCAASGFIFVYNDMGWYRPAPGKERELVAAISTSGGSTYYADSVKGRFTISRDNAKNTVYLQMNSLKPEDTAVYYCAAGPSYYPFFWPDFEYWGQGTQVTVSS,high polyreactivity
10,QVQLVESGGGLVQAGGSLRLSCAASGITFRLYAMGWYRPAPGKERELVAAISKRGGSTYYADSVKGRFTISRDNAKNTVYLQMNSLKPEDTAVYYCAADSGWEHRYDYWGQGTQVTVSS,high polyreactivity
11,QVQLVESGGGLVQAGGSLRLSCAASGFNFDGNAMGWYRQAPGKERELVAAISSSSGRTRYADSVTGRFSISRDNAKNTVYLQMNSLKPEDTAVYYCAARRQSTRPGFYYWGQGTQVTVSS,high polyreactivity
12,QVQLVESGGGLVQAGGSLRLSCAASGRIFSRNTMGWYRQAPGKERELVAAISWRGGSTYYADSVKGRFTISRDNAKNTVYLQMNSLKPEDTAVFYCAAVVRSPAYDYWGQGTQVSVSS,high polyreactivity
13,QVQLVESGGGLVQAGGSLRLSCAASGSIFGYYAMGWYIQAPGKERELVAAISWSGGSTYYADSVKGRFTISRDNAKNTVYLQMNSLKPEDTAVYYCNAYTRRGGHDYWGQGTQVTVSS,high polyreactivity
14,QVQLVESGGGLVQAGGSLRLSCAASGRIISVNAMGWYRQAPGKERELVAAITTRGGTPYYADSVKGRFTISRDNAKNTVSLQMNSLKPEDTAVYYCAAESSWSVYWEWAHDYWGQGTQVTVSS,low polyreactivity
15,QVQLVESGGGLVQAGWSLRLSCAASGRTFTHAMGWYRQAPGKERELVADISSGGSPNYADSVKGRFTISRDNAKNSVYLQMNSLKREDTAVSYCAAVSGSLYGYSVDYWGQGTQVTGSS,low polyreactivity
16,QVQLVESGGGLDQAGGSLSLSCAASGLIINSNTMGWYRQAPGKERELVAVINWRGGRTYYADSVKGRFTISRDNAKNTVDLQMNSLKPEDTAVYYCAAYLHGARYGYWGQGTQVTVSS,high polyreactivity
17,QVQLVESGGGLVQAGGSLRLSCAASGSILGLNAMGWYRQAPGKERELVASISRRGGSTRYADSVKGRFTISRDNAKNTVYLQMNSLKPEDTAVYYCNAYHWDGDGVFYEYDYWGQGTQVTVSS,high polyreactivity
18,QVQLVESGGGLVQAGGSLRLSCAASGSTFVTNDMGWYRQAPGKERDLVADISWSGGDTYYADSVKGRFTISRDNAKNTVYLQMNSLKPEDTAVYYCAARPDQGLAYSPLPWYNYWGQGTQVTVSS,low polyreactivity
19,QVQLVESGGGLVQAGGSLRLSCVASGSILAYYAMGWYRQAPGKERELVAAISRSGGSTYYADSVKRRFTISRDNAKNTVNLQMNSLKPEDTAVYYCAADFRRWQYNTVNEFGYWGQGTQVTVSS,high polyreactivity
20,QVQLVESGGGLVQAGGSLRLSCAASGLIFGYYAMGWYRQAPGKEREFVAAIDGSDGTTYYADSVKGRFTISRDNAKNTVYLQMNSLKPEDTAVYFCNADSSSYSSDLGYDYWGQGTQVTVSS,low polyreactivity
21,QVQLVESGGGLVQAGGSLRLSCAASGSTFAYNAMGWYRQAPGKERELVARISSSGDITYYADSVKGRFTISRDNAKNTVYLQMNCLKPEDTAVYYCAKRYLTRYKGYYYWGQGTQVTVSS,high polyreactivity
